Laboratory results published in patent US20180057581A1 (MorphoSys, published 2018).

T1: Recombinant cynomolgus monkey sgM-CSF (cynomolgus (Macaca fascicularis), UniProt P09603 33-255 (human entry), limits assumed)
T1 construct: used also where only 'cynomolgus M-CSF' is printed (ELISA result, SET); also called cynomolgus sgM-CSF; cyno sgM-CSF
T1 chain: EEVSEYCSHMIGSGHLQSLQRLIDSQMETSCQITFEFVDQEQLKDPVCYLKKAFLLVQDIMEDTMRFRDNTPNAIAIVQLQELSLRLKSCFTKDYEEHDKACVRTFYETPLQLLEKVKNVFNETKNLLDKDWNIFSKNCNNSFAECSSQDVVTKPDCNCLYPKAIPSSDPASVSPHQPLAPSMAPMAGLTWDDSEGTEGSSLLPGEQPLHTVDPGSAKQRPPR

T2: human cell-surface M-CSF on stably transfected CHO cells (human, UniProt P09603 33-554)
T2 construct: also called csM-CSF
T2 sequence: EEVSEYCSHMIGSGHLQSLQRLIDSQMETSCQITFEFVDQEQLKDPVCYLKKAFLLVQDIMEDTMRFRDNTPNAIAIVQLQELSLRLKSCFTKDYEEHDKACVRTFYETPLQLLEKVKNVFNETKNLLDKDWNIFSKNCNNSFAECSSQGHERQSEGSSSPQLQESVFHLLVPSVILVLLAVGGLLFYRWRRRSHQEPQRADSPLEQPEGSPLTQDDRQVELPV

T3: Recombinant human sgM-CSF (human, UniProt P09603 33-255)
T3 construct: also called human secreted glycosylated M-CSF; Human M-CSF
T3 sequence: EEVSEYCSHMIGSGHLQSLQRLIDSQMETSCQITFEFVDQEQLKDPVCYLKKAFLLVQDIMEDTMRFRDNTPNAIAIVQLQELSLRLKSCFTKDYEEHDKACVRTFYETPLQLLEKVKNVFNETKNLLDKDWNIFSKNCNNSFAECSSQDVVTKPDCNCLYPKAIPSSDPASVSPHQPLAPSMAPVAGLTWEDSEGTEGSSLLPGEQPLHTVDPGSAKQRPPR


Experiments:
[1] = biological target: T1, Recombinant cynomolgus monkey sgM-CSF; assay: MSD receptor binding inhibition: 12.5 pM cynomolgus sgM-CSF preincubated with antibody, binding to coated human CSF1-R-Fc
Protocol: (§1) Complexes were then transferred to 384 well MSD plates coated with 2 μg/ml of the corresponding receptor. Plates were then washed and incubated with the streptavidin/ECL conjugate for 2 h with shaking at room temperature. 35 μl MSD read buffer T with surfactant was then added per well and subsequently measured using MSD Sector Imager 6000.

[2] = biological target: T2, human cell-surface M-CSF on stably …; assay: FACS, CHO cells stably transfected with M-CSF (n = 3)
[3] = biological target: T3, Recombinant human sgM-CSF; assay: MSD receptor binding inhibition: 12.5 pM human sgM-CSF preincubated with antibody, binding to coated human CSF1-R-Fc
Protocol: as §1

[4] = biological target: T1, Recombinant cynomolgus monkey sgM-CSF; assay: cell-based or functional assay
[5] = biological target: T3, Recombinant human sgM-CSF; assay: cell-based or functional assay

Binder	IC50 [1] [pM]	EC50 [2] [nM]	IC50 [3] [pM]	IC50, inhibition of M-NFS-60 proliferation induced by recombinant cynomolgus M-CSF (9.5 pM) [4] [pM]	IC50, inhibition of M-NFS-60 proliferation induced by recombinant human M-CSF (9.5 pM) [5] [pM]
Blanche, IgG1_D265A (antibody, V domains shown, tested as IgG1 with D265A in the Fc (EU index); Parental antibody of Caline, Camille, Celine) VH: QVQLQQSGPGLVKPSQTLSLTCAISGDSVSSNSAAWNWIRQSPSRGLEWLGRTYYRSKWKHEYAMSVKSRITINPDTSKNQFSLQLNSVTPEDTAVYYCARDRYYYSAFDYWGQGTLVTVSS VL: DIALTQPASVSGSPGQSITISCTGTSSDVGGYNSVSWYQQHPGKAPKLMIYAVSNRPSGVSNRFSGSKSGNTASLTISGLQAEDEADYYCASYDERFTRVFGGGTKLTVLG	6.6	7.5	6.2	3.3	2.9
Meriem, IgG1_D265A (antibody, V domains shown, tested as IgG1 with D265A in the Fc (EU index)) VH: QVQLQQSGPGLVKPSQTLSLTCAISGDSVSTSSAAWNWIRQSPSRGLEWLGRTYYRSKWKKEYAQSVKSRITINPDTSKNQFSLQLNSVTPEDTAVYYCARDRYYYSAFDYWGQGTLVTVSS VL: QSALTQPASVSGSPGQSITISCTGTSSDVGGYNSVSWYQQHPGKAPKLIIYAVSNRPSGVSNRFSGSKSGNTASLTISGLQAEDEADYYCASYDERFTRVFGGGTKLTVLG	7.3	12.3	7	2.8	3.1
Madeleine, IgG1_D265A (antibody, V domains shown, tested as IgG1 with D265A in the Fc (EU index)) VH: QVQLQQSGPGLVKPSQTLSLTCAISGDSVSSNSAAWNWIRQSPSRGLEWLGRTYYRSKWKKEYAQSVKSRITINPDTSKNQFSLQLNSVTPEDTAVYYCARDRYYYSAFDYWGQGTLVTVSS VL: QSALTQPASVSGSPGQSITISCTGTSSDVGGYNSVSWYQQHPGKAPKLMIYAVSNRPSGVSNRFSGSKSGNTASLTISGLQAEDEADYYCASYDERFTRVFGGGTKLTVLG	5.6	6.4	5.6	2.8	3
Maelle, IgG1_D265A (antibody, V domains shown, tested as IgG1 with D265A in the Fc (EU index)) VH: QVQLQQSGPGLVKPSQTLSLTCAISGESVSTSSAAWNWIRQSPSRGLEWLGRTYYRSKWKKEYAQSVKSRITINPDTSKNQFSLQLNSVTPEDTAVYYCARDRYYYSAFDYWGQGTLVTVSS VL: QSALTQPASVSGSPGQSITISCTGTSSDVGGYNSVSWYQQHPGKAPKLIIYAVSNRPSGVSNRFSGSKSGNTASLTISGLQAEDEADYYCASYDERFTRVFGGGTKLTVLG	6.4	10.2	5.3	2.3	2.7
Celine, IgG1_D265A (antibody, V domains shown, tested as IgG1 with D265A in the Fc (EU index)) VH: QVQLQQSGPGLVKPSQTLSLTCAISGDSVSTSSAAWNWIRQSPSRGLEWLGRTYYRSKWKHEYAVSVKSRITINPDTSKNQFSLQLNSVTPEDTAVYYCARDRYYYSAFDYWGQGTLVTVSS VL: QSALTQPASVSGSPGQSITISCTGTSSDVGGYNSVSWYQQHPGKAPKLIIYAVSNRPSGVSNRFSGSKSGNTASLTISGLQAEDEADYYCASYDERFTRVFGGGTKLTVLG	6.9	9.7	4.7	3	2.7
Camille, IgG1_D265A (antibody, V domains shown, tested as IgG1 with D265A in the Fc (EU index)) VH: QVQLQQSGPGLVKPSQTLSLTCAISGESVSTSSAAWNWIRQSPSRGLEWLGRTYYRSKWKHEYAVSVKSRITINPDTSKNQFSLQLNSVTPEDTAVYYCARDRYYYSAFDYWGQGTLVTVSS VL: QSALTQPASVSGSPGQSITISCTGTSSDVGGYNSVSWYQQHPGKAPKLLIYAVSNRPSGVSNRFSGSKSGNTASLTISGLQAEDEADYYCASYDERFTRVFGGGTKLTVLG	5.9	6.1	4.4	2.6	2.3
Laurine, IgG1_D265A (antibody, V domains shown, tested as IgG1 with D265A in the Fc (EU index); Parental antibody of Madeleine, Maelle, Meriem) VH: QVQLQQSGPGLVKPSQTLSLTCAISGDSVSSNSAAWNWIRQSPSRGLEWLGRTYYRSKWKKEYAQSVKSRITINPDTSKNQFSLQLNSVTPEDTAVYYCARDRYYYSAFDYWGQGTLVTVSS VL: DIALTQPASVSGSPGQSITISCTGTSSDVGGYNSVSWYQQHPGKAPKLMIYAVSNRPSGVSNRFSGSKSGNTASLTISGLQAEDEADYYCASYDERFTRVFGGGTKLTVLG	4.3	11.2	4.9	2.8	2.6
Caline, IgG1_D265A (antibody, V domains shown, tested as IgG1 with D265A in the Fc (EU index)) VH: QVQLQQSGPGLVKPSQTLSLTCAISGDSVSSNSAAWNWIRQSPSRGLEWLGRTYYRSKWKHEYAMSVKSRITINPDTSKNQFSLQLNSVTPEDTAVYYCARDRYYYSAFDYWGQGTLVTVSS VL: QSALTQPASVSGSPGQSITISCTGTSSDVGGYNSVSWYQQHPGKAPKLMIYAVSNRPSGVSNRFSGSKSGNTASLTISGLQAEDEADYYCASYDERFTRVFGGGTKLTVLG	6.3	9.8	6.1	4.3	3.1
Romaine, IgG1_D265A (antibody, V domains shown, tested as IgG1 with D265A in the Fc (EU index); Parental antibody of Satine, Servane) VH: EVQLVESGGGLVKPGGSLRLSCAASGFTFSIYAMSWVRQAPGKGLEWVGRIKSNADGGTTEYAAPVKGRFTISRDDSKNTLYLQMNSLKTEDTAVYYCARMRYYSDLYFDPWGQGTLVTVSS VL: DIELTQPPSVSVSPGQTASITCSGDAIGSKYVHWYQQKPGQAPVLVISKDNKRPSGIPERFSGSNSGNTATLTISGTQAEDEADYYCQTATVSSYWWVFGGGTKLTVLG	9.1	16.4	9.1	8.1	8.4
Satine, IgG1_D265A (antibody, V domains shown, tested as IgG1 with D265A in the Fc (EU index)) VH: EVQLVESGGGLVKPGGSLRLSCAASGFTFSIYAMSWVRQAPGKGLEWVGRIKSNADGGTTEYAAPVKGRFTISRDDSKNTLYLQMNSLKTEDTAVYYCARMRYYSDLYFDPWGQGTLVTVSS VL: SYELTQPPSVSVSPGQTASITCSGDKLGQKYVSWYQQKPGQSPVLVISQDRKRPSGIPERFSGSNSGNTATLTISGTQAEDEADYYCQTWTHLQWVFGGGTKLTVLG	13.5	11.3	15.1	5.4	5.3
Servane, IgG1_D265A (antibody, V domains shown, tested as IgG1 with D265A in the Fc (EU index)) VH: EVQLVESGGGLVKPGGSLRLSCAASGFTFSTYAISWVRQAPGKGLEWVGFIKSKHNSGTTEYAAPVKGRFTISRDDSKNTLYLQMNSLKTEDTAVYYCARMRYYSDLYFDPWGQGTLVTVSS VL: SYELTQPPSVSVSPGQTASITCSGDKLGQKYVSWYQQKPGQSPVLVISQDRKRPSGIPERFSGSNSGNTATLTISGTQAEDEADYYCQTWTHLQWVFGGGTKLTVLG	11.8	21.3	31.3	13.4	11.8
